In paper doi:10.1101/068262 (bioRxiv, 2016):
No end group written: not given here.

B1: His6-tagged wild-type AFF4^ELLBow (AFF4 301-351) (peptide)
chain: PSQPLDASASGDVSCVDEILKEMTHSWPPPLTAIHTPCKTEPSKFPFPTKE
B2: AFF4^ELLBow double 328-329 Pro-Gly mutant (301-351) (peptide)
chain: PSQPLDASASGDVSCVDEILKEMTHSWGGPLTAIHTPCKTEPSKFPFPTKE
B3: AFF4^ELLBow P342D (301-351) (peptide)
chain: PSQPLDASASGDVSCVDEILKEMTHSWPPPLTAIHTPCKTEDSKFPFPTKE
B4: AFF4^ELLBow L331D (301-351) (peptide)
chain: PSQPLDASASGDVSCVDEILKEMTHSWPPPDTAIHTPCKTEPSKFPFPTKE
B5: AFF4^ELLBow I319D/L320D/M323D (301-351) (peptide)
chain: PSQPLDASASGDVSCVDEDDKEDTHSWPPPLTAIHTPCKTEPSKFPFPTKE
B6: AFF4^ELLBow W327D (301-351) (peptide)
chain: PSQPLDASASGDVSCVDEILKEMTHSDPPPLTAIHTPCKTEPSKFPFPTKE
B7: AFF4^ELLBow I319D/L320D (301-351) (peptide)
chain: PSQPLDASASGDVSCVDEDDKEMTHSWPPPLTAIHTPCKTEPSKFPFPTKE
B8: AFF4^ELLBow E322H (301-351) (peptide)
chain: PSQPLDASASGDVSCVDEILKHMTHSWPPPLTAIHTPCKTEPSKFPFPTKE
B9: AFF4^ELLBow I334D (301-351) (peptide)
chain: PSQPLDASASGDVSCVDEILKEMTHSWPPPLTADHTPCKTEPSKFPFPTKE
B10: AFF4^ELLBow M323D (301-351) (peptide)
chain: PSQPLDASASGDVSCVDEILKEDTHSWPPPLTAIHTPCKTEPSKFPFPTKE
B11: AFF4^ELLBow F345D/F347D (301-351) (peptide)
chain: PSQPLDASASGDVSCVDEILKEMTHSWPPPLTAIHTPCKTEPSKDPDPTKE

How the values were obtained:
[1] = biological target: Sumo-ELL2(519-640) (human) (UniProt O00472); test: fluorescence polarisation
Chain of Sumo-ELL2(519-640) (human) (O00472 519-640): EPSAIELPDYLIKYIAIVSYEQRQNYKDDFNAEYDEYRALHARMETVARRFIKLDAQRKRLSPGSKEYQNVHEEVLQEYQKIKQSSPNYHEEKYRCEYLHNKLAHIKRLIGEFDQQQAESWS

[2] = biological target: ELL2^Occ–(Gly-Ser)4-AFF4^ELLBow fusion (UniProt Q9UHB7); test: SEC
[3] = biological target: Sumo-ELL2(519-640) (human, UniProt O00472 519-640); test: fluorescence polarisation
Chain of Sumo-ELL2(519-640) (O00472 519-640): as above

[4] = biological target: GST-ELL2 (519-640) N619A (human, UniProt O00472 519-640, N619A); test: pull-down
Chain of GST-ELL2 (519-640) N619A (O00472 519-640 N619A): as the sequence (O00472 519-640) above, with N101A counted along it

[5] = biological target: GST-ELL2 (519-640) K625T (human, UniProt O00472 519-640, K625T); test: pull-down
Chain of GST-ELL2 (519-640) K625T (O00472 519-640 K625T): as the sequence (O00472 519-640) above, with K107T counted along it

[6] = biological target: GST-ELL2 (519-640) H559E (human, UniProt O00472 519-640, H559E); test: pull-down
Chain of GST-ELL2 (519-640) H559E (O00472 519-640 H559E): as the sequence (O00472 519-640) above, with H41E counted along it

[7] = biological target: GST-ELL2 (519-640) H608E (human, UniProt O00472 519-640, H608E); test: pull-down
Chain of GST-ELL2 (519-640) H608E (O00472 519-640 H608E): as the sequence (O00472 519-640) above, with H90E counted along it

Molecule | fold reduction of affinity against wild type [3] [fold] | other results
AFF4^ELLBow α1 mutant D317P/E317P (301-351) (from UniProt Q9UHB7 301-351) (peptide) | – | fold reduction of affinity against wild type [1]: 10 fold
ELL2^Occ–(Gly-Ser)4-AFF4^ELLBow fusion (from UniProt Q9UHB7 301-351) | – | stoichiometry N [2]: 2
B1 | – | Kd [3]: 86 nM; binding result [4]: binds; binding result [5]: binds; binding result [6]: binds; binding result [7]: binds
B2 | 3 | –
B3 | 3 | –
B4 | ~20 | –
B5 | – | Kd [3]: > 3000 nM
B6 | 4 | –
B7 | > 25 | –
B8 | < 2 | –
B9 | 8 | –
B10 | > 25 | –
B11 | < 2 | –
EILKEMTHSWPPPLTAIHTPSTAEPSKFPFPTK (also: fluorescent label, site not given here) [fluorescently labeled AFF1 peptide (residues 358-390)] | – | binding result [3]: binds
